# Assay results from patent US20230235075A1 (DYNAMICURE BIOTECHNOLOGY, published 2023).
# Numbering of substitutions follows the chain as printed.
# T1: Human CD93 on the cell surface (human CD93 expressing CHO cells; HUVEC, U937 and KG1a cells) (human, UniProt Q9NPY3 22-652)
# T1 construct: whole, on cells; also called hCD93 CHO cells; CHO-hCD93
# T1 sequence (looked up): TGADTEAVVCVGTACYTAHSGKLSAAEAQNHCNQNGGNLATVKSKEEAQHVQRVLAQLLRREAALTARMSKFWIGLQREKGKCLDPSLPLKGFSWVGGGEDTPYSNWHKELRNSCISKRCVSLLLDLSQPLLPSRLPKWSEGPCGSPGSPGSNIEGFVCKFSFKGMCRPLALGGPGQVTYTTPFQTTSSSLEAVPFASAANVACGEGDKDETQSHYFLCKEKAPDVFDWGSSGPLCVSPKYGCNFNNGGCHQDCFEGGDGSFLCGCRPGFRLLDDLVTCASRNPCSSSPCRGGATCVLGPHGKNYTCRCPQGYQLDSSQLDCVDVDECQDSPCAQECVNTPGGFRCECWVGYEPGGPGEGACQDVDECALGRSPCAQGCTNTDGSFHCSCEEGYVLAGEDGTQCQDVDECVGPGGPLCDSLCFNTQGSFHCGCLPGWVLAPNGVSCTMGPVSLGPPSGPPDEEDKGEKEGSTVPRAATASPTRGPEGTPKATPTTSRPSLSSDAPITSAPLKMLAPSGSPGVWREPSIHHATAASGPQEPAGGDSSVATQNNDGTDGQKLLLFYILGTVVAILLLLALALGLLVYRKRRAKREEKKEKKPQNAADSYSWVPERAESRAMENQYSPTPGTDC
# T2: Human CD93 recombinant protein (Sino Biological Inc, Catalog #12589-H08H) (human, UniProt Q9NPY3 22-580, biotinylated with EZ-LINK NHS-PEG4 biotin in the Octet assays)
# T2 construct: also called hCD93; His-tagged human CD93
# T2 sequence (looked up): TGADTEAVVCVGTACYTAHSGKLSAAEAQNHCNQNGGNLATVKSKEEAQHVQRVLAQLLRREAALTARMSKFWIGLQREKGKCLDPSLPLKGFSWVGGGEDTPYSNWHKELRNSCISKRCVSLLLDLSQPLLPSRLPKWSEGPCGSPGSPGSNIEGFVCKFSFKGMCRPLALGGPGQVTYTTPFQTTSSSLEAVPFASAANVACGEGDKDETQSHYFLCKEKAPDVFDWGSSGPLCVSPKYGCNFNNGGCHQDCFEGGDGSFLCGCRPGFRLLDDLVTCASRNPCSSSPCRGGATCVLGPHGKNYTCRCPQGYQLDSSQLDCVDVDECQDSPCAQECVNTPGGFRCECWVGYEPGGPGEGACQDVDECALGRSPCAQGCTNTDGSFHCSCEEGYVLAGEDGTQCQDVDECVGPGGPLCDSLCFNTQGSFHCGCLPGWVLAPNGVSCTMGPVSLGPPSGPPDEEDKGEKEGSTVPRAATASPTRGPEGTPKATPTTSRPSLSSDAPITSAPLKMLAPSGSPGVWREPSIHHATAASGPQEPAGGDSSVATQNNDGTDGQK
# B1: Humanized 17B10 H1L1 (antibody, mouse IgG1, V domains shown)
# VH: QVQLVQSGAEVKKPGSSVKVSCKASGYAFSSYWLNWVRQAPGQGLEWFGRIYPGDGDTDYNGKFKGRVTLTADKSTSTAYMELSSLRSEDTAVYFCVRGDGYWAMDYWGQGTTVTVSS
# VL: DIVMTQSPLSLPVTPGEPASISCRFSQSLLHSNGITYLYWYLQKPGQSPQLLIYQMSNLASGVPDRFSGSGSGTDFTLKISRVEAEDVGVYYCAQNLELPWTFGGGTKLEIK
# notes: Chimeric Fc: mouse IgG1 CH2 and CH3 domains and human CH1 domains
# B2: Humanized 17B10 H1L3 (antibody, mouse IgG1, V domains shown)
# VH: B1 VH
# VL: DIVMTQSPDSLAVSLGERATINCRFSKSLLHSNGITYLYWYQQKPGQPPKLLIYQMSNLASGVPDRFSGSGSGTDFTLTISSLQAEDVAVYYCAQNLELPWTFGGGTKLEIK
# B3: Humanized 17B10 H3L1 (antibody, mouse IgG1, V domains shown)
# VH: QVQLVQSGPEVKKPGESLKISCKASGYAFSSYWLNWVRQMPGKGLEWMGRIYPGDGDTDYNGKFKGQVTISADKSSGTAYLQLSSLKASDTAVYFCVRGDGYWAMDYWGQGTLVTVSS
# VL: B1 VL
# B4: Humanized 17B10 H2L1 (antibody, mouse IgG1, V domains shown)
# VH: QVQLVQSGAEVVKSGASVKVSCKASGYAFSSYWLNWVRQAPGQGLEWFGRIYPGDGDTDYNGKFKGRVTLIRDTSTSTVYMELTSLTSEDTAVYYCVRGDGYWAMDYWGQGTLVTVSS
# VL: B1 VL
# B5: Humanized 17B10 H2L3 (antibody, mouse IgG1, V domains shown)
# VH: B4 VH
# VL: B2 VL
# B6: Humanized 17B10 H1L2 (antibody, mouse IgG1, V domains shown)
# VH: B1 VH
# VL: B1 VL with S7T, Q55T
# B7: Humanized 17B10 H3L2 (antibody, mouse IgG1, V domains shown)
# VH: B3 VH
# VL: B1 VL with S7T, Q55T
# B8: 5H9 (antibody, IgG2a, V domains shown)
# VH: QVQLQQSGPDLVKPGASVKISCKASGYAFSTYWMNWVKQRPGKGLEWIGRIFPGDGDANYNGKFKGKATLTADKSSSTAYMQLSSLTSEDSAVYFCTRTGAAYDFDPFPYWGQGTLVTVSA
# VL: DIVMTQAAFSNPVTLGTSASISCSSSKSLLHSNGVTYLYWYLQRPGQSPQLLIYRMSNLASGVPDRFSGSGSGTDFTLRISRVEAEDVGIYYCAQMLERPFTFGSGTKLEIK
# notes: also called 5H9 mIgG2a
# B9: 17A7 (antibody, V domains shown)
# VH: B8 VH with D10E, A24G, A58T, N59D, N61D, S77N, T97A, D104E
# VL: B8 VL with S26T, N33S, V35I, I90V
# notes: Mouse hybridoma monoclonal antibody
# B10: 16G9 (antibody, V domains shown)
# VH: EVQLQQSGPELVKPGASVKMSCKASGYTFTDYYMNWVKQSHGKSLEWIGRVNPNNGGKTYNQKFKGKATLTVDKSLSTAYMQLNSLTSEDSAVYYCARWRLRPVDYGMDYWGQGTSVTVSS
# VL: DIVLTQSPASLAVSLGQRATISCRASQSVSTSSYSYMHWYQQKPGQPPKLLIKYASNLESGVPARFSGSGSGTDFTLNIHPVEEEDTATYYCQHSWEIPFTFGSGTKLEIK
# notes: as for B9
# B11: 19E12 (antibody, V domains shown)
# VH: QVQLQQSGAELVRPGASVKLSCKASGYTFTDYEMHWVRQTPVHGLEWIGGIDPETGGTAYNQKFKGKATLTADKSSSTAYMELRSLTSEDSAVYYCTRGAWFAYWGQGTLVTVSA
# VL: QAVVTQESALTTSPGETVTLTCRSSTGAVTTSNSANWVQEKPDHLFTGLIGGTNNRAPGVPARFSGSLIGDKAALTITGAQTEDEAIYFCALWYNNHFVFGGGTKLTVL
# notes: as for B9
# B12: 19B5 (antibody, V domains shown)
# VH: DVNLVESGGGLVKLGGSLKLSCAASGFTFSNYYMSWVRQSPEKRLEWVATISNNGDSTYYLDTVKGRFTISRDSAENTLYLQMSSLISEDTAVYYCTRVGTGFTYWGQGTLVTVSA
# VL: DIVLTQSPATLSVTPGDSVSLSCRASQSINNYLHWYQQRSHESPRLLIKFASQSISDIPSRFSGSGSGTDFTLSINSIETEDFGMYFCQQSNSWPLTFGAGTKLELK
# notes: as for B9
# B13: 20C7 (antibody, V domains shown)
# VH: EVQLQQSGPELVNPGASVKMSCKASGYTFTAYVMHWVKQKPGQGLEWIGYIFPYNDGTEYNEKFKGKATLTSDKSSSTAYMELSSLTSEDSAVYYCARRTDGNPYTMDYWGQGTSVTVSS
# VL: DIVMTQSHKFMSTSVGDRVSITCKASQDVSTAVAWYQQKPGQSPKLLIHSASYRYTGVPDRFTGRGSGTDFTFTISSVQAEDLAVYYCQQHYSTPFTFGSGTKLEIK
# notes: as for B9
# B14: 17E6 (antibody, V domains shown)
# VH: B13 VH with N13K, A31S, M34I, F52N, N55S, G57Y, E59Q, Y95S, T100A, T106A
# VL: B13 VL with I21T, A34V, H49Y, R65S, S76T
# notes: as for B9
# B15: 16B6 (antibody, V domains shown)
# VH: QVQLQQSGPELVKPGASVKISCKASGYAFSRSWMNWVKQRPGKGLEWIGWIYPGDGDTNYNGKFKGKATLTADKSSSTAYMQLSSLTSEDSAAYFCARSATLPYWYFDVWGAGTTVTVSS
# VL: DIKMTQSPSSMYASLGERVTITCKASQDIKSYLSWYQQKPWKSPKTLIYYATNLADGVPSRFSGSGSGQDYSLTISSLGSDDTATYYCLQHVESPWTFGGGTKLEIK
# notes: as for B9
# B16: 12H4 (antibody, V domains shown)
# VH: EVQLQQSGPELVKPGASVKVSCKASGYTFTDYYIHWVKQRPGQGLEWIGEIYPGSDDAYYNEKFKGKATLTADKSSSTAYMQLSSLTSEDSAVYFCTRETTATAYWGQGTLVTVSA
# VL: QIVLTQSPAIMSASPGEKVTITCSASSSVSLIYWFQQKPGTSPKLWIYSTSNLASGVPARFSGSGSGTSYSLTISRMEAEDAATYYCQQRSGYPPTFGGGTKLEIK
# notes: as for B9
# Target: T1, Human CD93 on the cell surface (human …)
# Assay: FACS, CHO cells overexpressing human CD93
row,binding result,Binder
1,binds,B1
2,binds,B2
3,binds,B3
4,binds,B4
5,binds,B5
6,binds,B6
7,binds,B7

# Target: T1, Human CD93 on the cell surface (human …)
# Assay: summary table, column 'Binding' (assay not given)
row,binding result,Binder
1,binds,B8
2,binds,B9
3,binds,B10
4,binds,B11
5,binds,B12
6,binds,B13
7,binds,B14
8,binds,B15
9,binds,B16

# Target: T2, Human CD93 recombinant protein (Sino …)
# Assay: Octet epitope binning on biotinylated human CD93, antibody 10 µg/ml
# Protocol: Anti-CD93 antibody epitope bins were determined using Octet QKe (Fortebio). Human CD93 recombinant protein (Sino Biological Inc, Catalog #12589-H08H) were biotinylated using EZ-LINK NHS-PEG4 biotin (Thermo Fisher Scientific). Streptavidin biosensors tips (Fortebio) were used to capture biotinylated human CD93 protein (300 seconds in 5 μg/ml). The baseline was stabilized for 60 seconds in 1× kinetics buffer (Fortebio) before primary anti-CD93 antibodies (10 μg/ml) were allowed to associate for 300 seconds with captured protein. A panel of secondary anti-CD93 antibodies (10 μg/ml) were then allowed to associate with the antigen and primary antibody complex for additional 300 seconds. Signals were recorded for each binding event and data analysis was performed on ForteBio Data Analysis HT 11.1 software.
row,binding result,Binder
1,binds,B8
2,binds,B10
3,binds,B11
4,binds,B15
